Test [1] concerns the target BRAF-HDAC Complex 80 (BHC80)-PHD finger (UniProt Q96BD5 486-543). The test is described as follows: ITC.
The target in test [2] is T1, inhibitor of growth 2 (ING2) PHD finger.
T1 sequence (Q9H160 whole entry, species assumed, looked up): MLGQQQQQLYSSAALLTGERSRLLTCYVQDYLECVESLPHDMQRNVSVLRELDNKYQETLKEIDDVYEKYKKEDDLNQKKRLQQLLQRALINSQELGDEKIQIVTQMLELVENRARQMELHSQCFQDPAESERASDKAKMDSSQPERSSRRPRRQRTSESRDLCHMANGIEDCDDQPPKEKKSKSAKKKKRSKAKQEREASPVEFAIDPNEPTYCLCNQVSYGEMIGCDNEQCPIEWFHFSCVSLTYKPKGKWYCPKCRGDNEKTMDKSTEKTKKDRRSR
The test is described as follows: ITC.

Non-standard residues stand in square brackets, D forms with d. No end group written: not given here. Lys(Me3) = C[N+](C)(C)CCCC[C@H](N)C(=O)O; Arg(Me2s) = CN=C(NC)NCCC[C@H](N)C(=O)O

Chain of BRAF-HDAC Complex 80 (BHC80)-PHD finger (Q96BD5 486-543, one chain of several): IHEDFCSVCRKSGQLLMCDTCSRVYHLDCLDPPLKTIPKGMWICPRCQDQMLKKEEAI

A[Arg(Me2s)]TKQTARKSTG [H3R2me2s- modified peptide] yielded a Kd in test [1] of 57.2 µM.
A[Arg(Me2s)]T[Lys(Me3)]QTARKSTG [H3 peptide bearing K4me3 and R2me2s marks]: the Kd in test [2] amounted to 17.3 µM.
In test [2], ART[Lys(Me3)]QTARKSTG [H3K4me3 peptide (ITC)] had an equilibrium dissociation constant (Kd) of 0.98 µM. Compared with the last molecule, the Kd is about 18-fold lower.

The values are drawn from paper PMC2922993 (Nature chemical biology, 2010).
